The assay concerns the target T1, 临床全血样本裂解液中的MxA蛋白 (human) (UniProt P20591).
T1 sequence (looked up): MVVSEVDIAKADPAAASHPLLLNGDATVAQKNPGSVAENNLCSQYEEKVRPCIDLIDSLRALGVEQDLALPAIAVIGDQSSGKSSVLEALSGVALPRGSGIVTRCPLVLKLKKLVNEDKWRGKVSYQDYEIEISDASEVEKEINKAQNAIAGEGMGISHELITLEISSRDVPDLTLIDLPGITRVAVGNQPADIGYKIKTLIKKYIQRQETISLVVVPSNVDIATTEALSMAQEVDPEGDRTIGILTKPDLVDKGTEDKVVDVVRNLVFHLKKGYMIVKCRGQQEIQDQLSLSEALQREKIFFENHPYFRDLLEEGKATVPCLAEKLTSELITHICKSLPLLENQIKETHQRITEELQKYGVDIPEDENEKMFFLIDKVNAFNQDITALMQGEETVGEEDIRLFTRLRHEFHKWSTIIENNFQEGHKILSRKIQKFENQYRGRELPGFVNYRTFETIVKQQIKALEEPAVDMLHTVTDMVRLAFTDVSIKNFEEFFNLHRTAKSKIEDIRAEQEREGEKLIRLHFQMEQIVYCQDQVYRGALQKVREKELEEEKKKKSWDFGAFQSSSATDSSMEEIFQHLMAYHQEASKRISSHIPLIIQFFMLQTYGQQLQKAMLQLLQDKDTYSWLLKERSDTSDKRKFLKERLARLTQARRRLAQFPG
Briefly: sandwich ELISA on clinical whole-blood lysates, antibody A coated (capture), antibody B-HRP detection. (In general: An ELISA detects its analyte on a solid surface through an enzyme-linked reagent.)

A value given as a limit tells only on which side of the number the result lay.

B1: 抗体A (MxA-A抗体) (antibody, V domains shown)
VH: EVQLVETGGGLVQPKGSLIVSCAASGFTFNRSAMNWVRQAPGKGLEWVARIRTKSNNYATYYADSVKDRFTISRDDSQSMLYLQMNNLKTEDTAMYYCVGGSDFAYWGQGTLVTVSA
VL: DIQMTQTTSSLSASLGDRVTISCRASQDISNYLNWFQQKPDGTVKLLIYYTSRLYSGVPSRFSGSGSGTDYSLTITNLEQEDIATYFCQQGNTLPLTFGAGTKLELK
On to B1, for which the OD450 was greater than 0.6 OD450.

B2: 抗体B (MxA-B抗体) (antibody, V domains shown)
VH: QVQLQQSGAELARPGASVKLSCKASGYTFTSYWILWLKQRPGQGLEWIGAVYPGDGDTRYTQKFKGKATLTADKSSSTAYMQLSSLASEDSAVYYCARGYDNSFDYWGQGTTLTVSS
VL: DVLMTQTPLSLPVSLGDQASISCRTSQTIVHSNGNTYLEWYLQKPGQSPKLLIYKVSNRFSGVPDRFSGSGSGTDFTLKISRVEAEDLGVYYCFQGSHVPPTFGAGTKLELK
In turn, B2 returned an OD450 greater than 0.6 OD450.

These data come from patent CN116284368A.
